Measurements reported in publication PMC5146997.

What was measured:
[1] = target: EphA2 at the surface of PC3 cells (endogenous) (human (endogenous in PC3)) (UniProt P29317); experiment: in-cell binding assay
[2] = target: EphA2-Fc (entire ectodomain of EphA2 fused to the Fc fragment of IgG) (UniProt P29317); experiment: ELISA
Chain of EphA2-Fc (entire ectodomain of EphA2 fused to the Fc fragment of IgG) (P29317 24-537): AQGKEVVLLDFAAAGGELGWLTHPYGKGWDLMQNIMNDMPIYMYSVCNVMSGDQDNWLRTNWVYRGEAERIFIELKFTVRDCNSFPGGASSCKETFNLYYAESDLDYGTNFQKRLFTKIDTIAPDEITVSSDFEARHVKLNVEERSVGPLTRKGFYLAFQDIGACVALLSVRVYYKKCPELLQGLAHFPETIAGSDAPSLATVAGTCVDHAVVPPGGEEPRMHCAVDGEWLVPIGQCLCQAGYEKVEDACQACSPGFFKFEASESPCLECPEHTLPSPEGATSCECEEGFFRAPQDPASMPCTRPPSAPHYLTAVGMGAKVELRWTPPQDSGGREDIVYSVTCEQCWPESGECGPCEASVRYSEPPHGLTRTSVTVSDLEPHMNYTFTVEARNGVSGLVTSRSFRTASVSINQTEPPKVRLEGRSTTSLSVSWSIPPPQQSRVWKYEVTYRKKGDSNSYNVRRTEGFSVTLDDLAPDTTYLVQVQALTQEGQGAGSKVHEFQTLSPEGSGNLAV

Chain of EphA2 at the surface of PC3 cells (endogenous) (human (endogenous in PC3)) (P29317 24-976): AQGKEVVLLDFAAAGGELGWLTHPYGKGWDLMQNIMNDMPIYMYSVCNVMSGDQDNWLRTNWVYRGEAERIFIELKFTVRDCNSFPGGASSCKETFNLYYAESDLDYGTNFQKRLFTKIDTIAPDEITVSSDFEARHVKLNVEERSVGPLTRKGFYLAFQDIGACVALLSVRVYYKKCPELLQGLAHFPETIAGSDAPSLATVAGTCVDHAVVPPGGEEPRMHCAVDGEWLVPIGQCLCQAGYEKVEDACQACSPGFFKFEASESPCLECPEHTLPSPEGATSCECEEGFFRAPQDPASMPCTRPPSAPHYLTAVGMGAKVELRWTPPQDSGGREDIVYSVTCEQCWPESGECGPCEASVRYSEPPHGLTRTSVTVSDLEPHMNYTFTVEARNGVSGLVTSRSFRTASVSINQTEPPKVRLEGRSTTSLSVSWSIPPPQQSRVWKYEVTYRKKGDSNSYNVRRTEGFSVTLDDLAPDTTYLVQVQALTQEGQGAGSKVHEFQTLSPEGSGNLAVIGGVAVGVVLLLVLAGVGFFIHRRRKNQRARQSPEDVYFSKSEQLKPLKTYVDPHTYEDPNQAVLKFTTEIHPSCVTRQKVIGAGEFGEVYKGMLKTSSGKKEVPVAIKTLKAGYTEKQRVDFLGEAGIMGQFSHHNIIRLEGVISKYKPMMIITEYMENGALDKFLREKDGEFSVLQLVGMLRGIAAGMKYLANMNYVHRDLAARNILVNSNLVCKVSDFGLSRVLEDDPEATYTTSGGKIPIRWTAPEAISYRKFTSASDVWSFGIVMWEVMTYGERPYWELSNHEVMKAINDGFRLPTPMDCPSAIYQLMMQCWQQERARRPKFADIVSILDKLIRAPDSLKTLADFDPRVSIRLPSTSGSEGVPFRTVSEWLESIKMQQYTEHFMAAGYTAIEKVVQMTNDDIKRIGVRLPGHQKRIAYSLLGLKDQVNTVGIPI

Which results are given for “EphrinA1-Fc (from UniProt P20827 19-182) (Fc fusion)”?
IC50 [1]: 0.4 µM; Kd [2]: 0.017 µM
